Values of other authors, collected in paper PMC10044870.

Molecular target: cleaved high molecular weight kininogen (HKa) (Homo sapiens) (UniProt P01042)
Sequence (P01042 19-380, chain 1 of 2): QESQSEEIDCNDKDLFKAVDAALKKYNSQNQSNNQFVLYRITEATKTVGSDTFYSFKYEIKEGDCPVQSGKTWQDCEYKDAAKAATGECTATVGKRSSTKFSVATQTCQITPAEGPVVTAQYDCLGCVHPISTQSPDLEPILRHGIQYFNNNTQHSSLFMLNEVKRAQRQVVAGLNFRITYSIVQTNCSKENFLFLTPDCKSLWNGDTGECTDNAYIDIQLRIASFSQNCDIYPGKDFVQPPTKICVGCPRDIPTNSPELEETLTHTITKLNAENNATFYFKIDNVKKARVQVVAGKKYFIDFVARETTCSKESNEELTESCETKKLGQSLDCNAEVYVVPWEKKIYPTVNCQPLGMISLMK
Sequence (P01042 390-644, chain 2 of 2): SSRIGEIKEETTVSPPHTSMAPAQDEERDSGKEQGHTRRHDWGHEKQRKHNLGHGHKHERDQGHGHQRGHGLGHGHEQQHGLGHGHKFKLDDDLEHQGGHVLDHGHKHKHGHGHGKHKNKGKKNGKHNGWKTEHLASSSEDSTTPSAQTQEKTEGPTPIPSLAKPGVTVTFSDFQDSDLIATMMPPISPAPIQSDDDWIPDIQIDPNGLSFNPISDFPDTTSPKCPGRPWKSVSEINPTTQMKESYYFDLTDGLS

ferritin, sequence (P02794 2-183): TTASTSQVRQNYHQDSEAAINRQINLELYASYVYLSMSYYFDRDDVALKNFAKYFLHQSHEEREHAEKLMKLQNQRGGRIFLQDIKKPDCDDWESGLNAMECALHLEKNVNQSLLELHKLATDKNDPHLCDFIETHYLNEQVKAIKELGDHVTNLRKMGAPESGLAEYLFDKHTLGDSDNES
ferritin, sequence (P02792 2-175, further chain): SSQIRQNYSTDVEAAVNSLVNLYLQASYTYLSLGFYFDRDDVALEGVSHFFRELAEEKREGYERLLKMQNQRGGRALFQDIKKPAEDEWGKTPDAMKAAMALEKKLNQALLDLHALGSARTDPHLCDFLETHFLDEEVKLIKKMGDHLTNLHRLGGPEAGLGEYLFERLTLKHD

ferritin (from UniProt P02794)
Kd: 13 nM
